According to article PMC11591715 (2024):

Legend:
Assay in all cases: BLI
[1] = biological target: T1, m801.3 (anti-EpCAM-IL-2v immunocytokine, 1 anti-EpCAM Fab + 1 IL-2v, IL-2v fused at the N-terminus of the Fc … ( | human, UniProt P60568 21-153, F42A | Y45A | L72G))
[2] = biological target: m801.2 (anti-EpCAM-IL-2v immunocytokine, 2 anti-EpCAM Fab + 1 IL-2v, IL-2v fused at the C-terminus of IgG1 Fc) (human | , UniProt P60568 21-153, F42A | Y45A | L72G)
[3] = biological target: T1, m801.3 (anti-EpCAM-IL-2v …); remark: listed apart in the source

koff [1]: 0.00784 s⁻¹ | koff [2]: 0.00412 s⁻¹ | Kd [3]: 55.6 nM
B1: IL-2 receptor β subunit (IL-2Rβ) (receptor)
chain: AVNGTSQFTCFYNSRANISCVWSQDGALQDTSCQVHAWPDRRRWNQTCELLPVSQASWACNLILGAPDSQKLTTVDIVTLRVLCREGVRWRVMAIQDFKPFENLRLMAPISLQVVHVETHRCNISWEISQASHYFERHLEFEARTLSPGHTWEEAPLLTLKQKQEWICLETLTPDTQYEFQVRVKPLQGEFTTWSPWSQPLAFRTKPAALGKDTIPWLGHLLVGLSGAFGFIILVYLLINCRNTGPWLKKVLKCNTPDPSKFFSQLSSEHGGDVQKWLSSPFPSSSFSPGGLAPEISPLEVLERDKVTQLLLQQDKVPEPASLSSNHSLTSCFTNQGYFFFHLPDALEIEACQVYFTYDPYSEEDPDEGVAGAPTGSSPQPLQPLSGEDDAYCTFPSRDDLLLFSPSLLGGPSPPSTAPGGSGAGEERMPPSLQERVPRDWDPQPLGPPTPGVPDLVDFQPPPELVLREAGEEVPDAGPREGVSFPWSRPPGQGEFRALNARLPLNTDAYLSLQELQGQDPTHLV
modifications: biotin (biotinylated antigen)
